This note sets out measurements from PMC10070233 (Cellular and Molecular Life Sciences: CMLS, 2023).

Assay in all cases: BLI; kinetics: FGFRs-Fc (25 μg/mL) immobilised on Protein-A sensors, galectins 0.2-6 μM; heterogeneous ligand (2:1) model
What all share (details): both partners purified
(In general: BLI is a label-free optical method that tracks binding on a fibre tip over time.)

For experiment [1], the target named is T1, extracellular region of FGFR1 fused to the Fc fragment of human IgG1 (human, UniProt P11362 22-376, N-glycosylated (eight N-glycosylation sites)).
T1 construct: FGFR1, extracellular region with domains D1, D2 and D3; also called FGFR1-Fc; FGFR1.Fc; source: CHO cells, purified (Protein A Sepharose)
T1 sequence (looked up): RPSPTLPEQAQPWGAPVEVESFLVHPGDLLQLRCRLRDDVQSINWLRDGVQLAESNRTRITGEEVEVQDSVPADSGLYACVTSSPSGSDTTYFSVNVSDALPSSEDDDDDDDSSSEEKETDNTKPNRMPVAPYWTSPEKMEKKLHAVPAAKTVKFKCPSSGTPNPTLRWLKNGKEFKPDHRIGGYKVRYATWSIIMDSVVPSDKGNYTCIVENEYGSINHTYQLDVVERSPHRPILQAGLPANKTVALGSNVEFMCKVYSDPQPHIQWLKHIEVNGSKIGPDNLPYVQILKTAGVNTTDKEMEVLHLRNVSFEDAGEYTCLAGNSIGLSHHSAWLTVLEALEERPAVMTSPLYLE

Experiment [2] concerns the target T2, extracellular region of FGFR2 fused to the Fc fragment of human IgG1 (human, UniProt P21802 22-377, N-glycosylated (eight putative N-glycosylation sites)).
T2 construct: FGFR2, extracellular region; also called FGFR2-Fc; source: CHO cells, purified (Protein A Sepharose)

The target in experiment [3] is T3, extracellular region of FGFR3 fused to the Fc fragment of human IgG1 (human, UniProt P22607 23-375, N-glycosylated (six putative N-glycosylation sites)).
T3 construct: FGFR3, extracellular region; also called FGFR3-Fc; source: CHO cells, purified (Protein A Sepharose)
T3 sequence (looked up): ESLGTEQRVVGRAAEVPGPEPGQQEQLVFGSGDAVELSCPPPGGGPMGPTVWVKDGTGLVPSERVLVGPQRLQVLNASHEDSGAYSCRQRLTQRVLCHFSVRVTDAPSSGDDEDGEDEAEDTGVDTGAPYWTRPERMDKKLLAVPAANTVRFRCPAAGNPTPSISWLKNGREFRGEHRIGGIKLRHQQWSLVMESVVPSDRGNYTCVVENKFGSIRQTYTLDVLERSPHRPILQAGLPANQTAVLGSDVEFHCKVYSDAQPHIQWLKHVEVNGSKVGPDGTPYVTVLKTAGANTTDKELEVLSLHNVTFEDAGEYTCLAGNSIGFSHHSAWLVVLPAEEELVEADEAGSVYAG

Experiment [4] addresses T4, extracellular region of FGFR4 fused to the Fc fragment of human IgG1 (human, UniProt P22455 22-369, N-glycosylated (five putative N-glycosylation sites)).
T4 construct: FGFR4, extracellular region; also called FGFR4-Fc; source: CHO cells, purified (Protein A Sepharose)
T4 sequence (looked up): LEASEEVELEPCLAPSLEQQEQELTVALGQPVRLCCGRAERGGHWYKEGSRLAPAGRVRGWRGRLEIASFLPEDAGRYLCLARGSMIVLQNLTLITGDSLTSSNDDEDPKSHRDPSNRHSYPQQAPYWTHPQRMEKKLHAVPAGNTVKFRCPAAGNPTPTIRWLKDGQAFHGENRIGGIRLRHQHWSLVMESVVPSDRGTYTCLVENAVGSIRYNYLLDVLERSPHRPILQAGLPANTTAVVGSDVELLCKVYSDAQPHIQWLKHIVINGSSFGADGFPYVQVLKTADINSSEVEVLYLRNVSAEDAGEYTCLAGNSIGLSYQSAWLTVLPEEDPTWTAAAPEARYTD

T2 sequence (P21802 22-377): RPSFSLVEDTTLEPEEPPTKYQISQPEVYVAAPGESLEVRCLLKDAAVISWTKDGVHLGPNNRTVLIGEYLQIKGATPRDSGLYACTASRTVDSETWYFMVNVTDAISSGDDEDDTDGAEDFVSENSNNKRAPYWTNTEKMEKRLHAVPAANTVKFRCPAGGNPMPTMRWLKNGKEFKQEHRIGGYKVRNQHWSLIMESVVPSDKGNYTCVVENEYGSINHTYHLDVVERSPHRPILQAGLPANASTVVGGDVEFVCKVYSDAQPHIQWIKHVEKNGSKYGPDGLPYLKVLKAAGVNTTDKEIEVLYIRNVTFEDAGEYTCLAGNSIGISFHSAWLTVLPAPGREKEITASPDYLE

B1: galectin-8 (natural protein, human, UniProt O00214 1-317, looked up)
chain: MMLSLNNLQNIIYNPVIPFVGTIPDQLDPGTLIVIRGHVPSDADRFQVDLQNGSSMKPRADVAFHFNPRFKRAGCIVCNTLINEKWGREEITYDTPFKREKSFEIVIMVLKDKFQVAVNGKHTLLYGHRIGPEKIDTLGIYGKVNIHSIGFSFSSDLQSTQASSLELTEISRENVPKSGTPQLRLPFAARLNTPMGPGRTVVVKGEVNANAKSFNVDLLAGKSKDIALHLNPRLNIKAFVRNSFLQESWGEEERNITSFPFSPGMYFEMIIYCDVREFKVAVNGVHSLEYKHRFKELSSIDTLEINGDIHLLEVRSW
notes: galectin-8, human; the C-CRD construct ends at Trp317, which fits the form of 317 residues; also called gal-8; full-length galectin-8; source: E. coli BL21 CodonPlus(DE3)-RIL, purified (Ni-NTA); not shown: His tag, N-terminal, kept
In experiment [1], B1 came in with a KD1 of 0.95 µM, a KD2 of 194 nM, a Koff1 of 0.0225 s⁻¹ and a Koff2 of 0.000766 s⁻¹. Besides, in experiment [1], the Kon1 is 25200 M⁻¹ s⁻¹ and the Kon2 was determined as 8820 M⁻¹ s⁻¹. In experiment [2], the KD1 stood at 3.8 µM, the KD2 amounted to 141 nM, the Koff1 was found to be 0.0312 s⁻¹ and the Koff2 stood at 0.00493 s⁻¹. In experiment [2], this molecule gave a Kon1 of 13200 M⁻¹ s⁻¹ and a Kon2 of 35100 M⁻¹ s⁻¹. Moreover, in experiment [3], the KD1 was determined as 174 nM, the KD2 stood at 63 nM, the Koff1 came to 0.0289 s⁻¹ and the Koff2 amounted to 0.000855 s⁻¹. In experiment [3], this molecule showed a Kon1 of 167000 M⁻¹ s⁻¹ and a Kon2 of 14500 M⁻¹ s⁻¹. For the same molecule, in experiment [4], the KD1 is 24.3 nM, the KD2 was 249 nM, the Koff1 is 0.000929 s⁻¹ and the Koff2 is 0.0161 s⁻¹. Also, in experiment [4], the Kon1 was 38700 M⁻¹ s⁻¹ and the Kon2 is 65100 M⁻¹ s⁻¹.

B2: N-terminal carbohydrate recognition domain of galectin-8 fused to the AviTag (domain or fragment, human, UniProt O00214 1-152, looked up)
chain: MMLSLNNLQNIIYNPVIPFVGTIPDQLDPGTLIVIRGHVPSDADRFQVDLQNGSSMKPRADVAFHFNPRFKRAGCIVCNTLINEKWGREEITYDTPFKREKSFEIVIMVLKDKFQVAVNGKHTLLYGHRIGPEKIDTLGIYGKVNIHSIGFS
notes: galectin-8, human, N-CRD, residues Met1-Ser152; also called gal-8N-CRD; gal-8_(N-CRD); source: E. coli BL21(DE3) pLysS, purified (Ni-NTA); not shown: AviTag, C-terminal, kept
In the case of B2, in experiment [1], the KD1 came out at 2.6 µM, the KD2 was 17 nM, the Koff1 turned out to be 0.164 s⁻¹ and the Koff2 is 0.000194 s⁻¹. In experiment [1], this molecule returned a Kon1 of 165000 M⁻¹ s⁻¹ and a Kon2 of 429000 M⁻¹ s⁻¹.
